Experimental findings from PMC9701220, “Molecular basis for glycan recognition and reaction priming of eukaryotic oligosaccharyltransferase” (Nature Communications, 2022) are described below.

Common to all, as to conditions: both partners purified
Test [1] addresses T1, STT3, catalytic subunit of S. cerevisiae OST (S. cerevisiae, UniProt P39007 1-718).
T1 construct: STT3, catalytic subunit of S. cerevisiae OST; Stood in the assay within the whole OST complex; also called S.c; STT3; source: S. cerevisiae, as a subunit of the purified OST complex (Rho-1D4 antibody Sepharose through OST4-1D4, SEC)
T1 sequence: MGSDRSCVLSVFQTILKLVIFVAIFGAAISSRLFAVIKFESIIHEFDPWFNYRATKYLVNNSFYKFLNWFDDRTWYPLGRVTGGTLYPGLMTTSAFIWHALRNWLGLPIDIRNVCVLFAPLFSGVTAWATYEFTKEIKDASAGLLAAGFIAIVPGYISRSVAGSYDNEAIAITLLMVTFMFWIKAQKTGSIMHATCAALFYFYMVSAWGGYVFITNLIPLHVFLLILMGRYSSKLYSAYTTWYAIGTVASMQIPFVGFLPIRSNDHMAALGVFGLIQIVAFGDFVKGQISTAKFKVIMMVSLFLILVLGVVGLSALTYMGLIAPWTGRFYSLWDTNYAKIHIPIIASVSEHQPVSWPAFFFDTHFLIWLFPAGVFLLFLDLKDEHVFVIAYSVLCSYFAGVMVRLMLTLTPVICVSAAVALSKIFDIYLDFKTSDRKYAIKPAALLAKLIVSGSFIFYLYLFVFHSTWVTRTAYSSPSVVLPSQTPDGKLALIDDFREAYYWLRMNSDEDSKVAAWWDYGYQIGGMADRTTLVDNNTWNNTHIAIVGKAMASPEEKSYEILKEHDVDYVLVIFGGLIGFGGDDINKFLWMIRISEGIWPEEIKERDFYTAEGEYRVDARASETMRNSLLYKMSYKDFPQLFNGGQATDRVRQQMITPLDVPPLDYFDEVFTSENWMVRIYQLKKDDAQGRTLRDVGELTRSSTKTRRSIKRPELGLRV
In words: cryo-EM structure; nanodisc-reconstituted OST 2.5 uM incubated with 7.5 uM Dol20-PP-GlcNAc2Man9Glc3 and 500 uM TAMRA-YA(Dab)ATS peptide for 15 min before vitrification; MnCl2 present; the sample gave two states, LLO-bound (3.0 A) and ternary complex (3.1 A).

For test [2], the target named is T2, S. cerevisiae oligosaccharyltransferase (OST) complex, OST3-containing (S. cerevisiae, UniProt P39007 1-718; P41543 23-476; Q92316 1-86; P48439 23-350; Q99380 1-36; P46964 …).
T2 construct: STT3, catalytic subunit of S. cerevisiae OST; OST1, subunit of S. cerevisiae OST (subcomplex I); OST5, subunit of S. cerevisiae OST (subcomplex I); OST3, oxidoreductase subunit of S. cerevisiae OST (subcomplex II); expressed from the plasmid YEp352-OST3 in an ost6 deletion strain; OST4, subunit of S. cerevisiae OST (subcomplex II); genomic OST4-1D4; OST2, subunit of S. cerevisiae OST (subcomplex …)
The test can be described thus: cryo-EM structure; digitonin-purified OST 18 uM incubated with 500 uM TAMRA-YANATS peptide for 15 min before vitrification, no LLO; the sample gave two states, peptide-bound (2.8 A) and apo (2.9 A).

Test [3] has as its target T3, WBP1, subunit of S. cerevisiae OST (S. cerevisiae, UniProt P33767 21-430).
T3 construct: WBP1, non-catalytic subunit of S. cerevisiae OST; Stood in the assay within the whole OST complex; also called WPB1; source: S. cerevisiae, as a subunit of the purified OST complex (Rho-1D4 antibody Sepharose through OST4-1D4, SEC)
T3 sequence (looked up): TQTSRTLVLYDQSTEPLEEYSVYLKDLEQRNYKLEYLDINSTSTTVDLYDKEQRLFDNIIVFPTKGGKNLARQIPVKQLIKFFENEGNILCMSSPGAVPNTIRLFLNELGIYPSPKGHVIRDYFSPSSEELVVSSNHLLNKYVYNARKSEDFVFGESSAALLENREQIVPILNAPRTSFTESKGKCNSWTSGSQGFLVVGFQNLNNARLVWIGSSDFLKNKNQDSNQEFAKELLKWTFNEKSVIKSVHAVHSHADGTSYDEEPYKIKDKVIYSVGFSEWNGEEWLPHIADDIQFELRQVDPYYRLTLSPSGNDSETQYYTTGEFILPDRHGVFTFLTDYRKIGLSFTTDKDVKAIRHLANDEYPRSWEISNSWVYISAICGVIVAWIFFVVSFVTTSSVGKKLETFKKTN
In words: cryo-EM structure; nanodisc-reconstituted OST 2.5 uM incubated with 7.5 uM Dol20-PP-GlcNAc2Man9Glc3 and 500 uM TAMRA-YA(Dab)ATS peptide for 15 min before vitrification; MnCl2 present; the sample gave two states, LLO-bound (3.0 A) and ternary complex (3.1 A).

The star is where a group is joined. 5‑TAMRA = CN(C)c1ccc2c(-c3ccc(C(=O)*)cc3C(=O)[O-])c3ccc(N(C)C)cc3[o+]c2c1

T2 sequence (P41543 23-476, chain 2 of 4): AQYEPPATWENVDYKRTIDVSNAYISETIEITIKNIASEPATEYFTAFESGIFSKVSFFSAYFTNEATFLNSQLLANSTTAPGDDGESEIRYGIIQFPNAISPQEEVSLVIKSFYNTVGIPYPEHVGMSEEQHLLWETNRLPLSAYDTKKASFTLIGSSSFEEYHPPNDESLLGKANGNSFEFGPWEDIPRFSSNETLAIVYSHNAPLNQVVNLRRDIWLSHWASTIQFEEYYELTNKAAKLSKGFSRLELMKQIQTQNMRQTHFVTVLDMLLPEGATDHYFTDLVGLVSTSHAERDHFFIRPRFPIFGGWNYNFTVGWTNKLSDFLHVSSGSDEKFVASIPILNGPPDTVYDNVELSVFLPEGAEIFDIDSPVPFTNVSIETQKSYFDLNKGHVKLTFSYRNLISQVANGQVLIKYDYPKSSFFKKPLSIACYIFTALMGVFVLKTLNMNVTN
T2 sequence (Q92316 whole entry, chain 3 of 4): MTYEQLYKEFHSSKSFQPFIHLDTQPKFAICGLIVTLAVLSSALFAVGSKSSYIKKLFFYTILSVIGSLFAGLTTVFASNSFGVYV
T2 sequence (Q99380 whole entry, chain 5 of 4): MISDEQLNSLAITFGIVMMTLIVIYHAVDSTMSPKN
T2 sequence (Q02795 20-286, chain 8 of 4, further chain): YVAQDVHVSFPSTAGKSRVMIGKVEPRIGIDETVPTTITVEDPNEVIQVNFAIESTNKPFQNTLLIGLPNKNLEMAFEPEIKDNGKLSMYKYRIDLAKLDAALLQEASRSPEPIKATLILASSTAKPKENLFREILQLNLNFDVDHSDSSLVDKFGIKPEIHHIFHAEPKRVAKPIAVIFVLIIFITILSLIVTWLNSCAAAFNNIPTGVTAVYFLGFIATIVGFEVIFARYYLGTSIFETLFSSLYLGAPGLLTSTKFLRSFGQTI

B1: OST3, subunit of S. cerevisiae OST (natural protein, UniProt P48439 23-350, looked up)
chain: MSSNRLLKLANKSPKKIIPLKDSSFENILAPPHENAYIVALFTATAPEIGCSLCLELESEYDTIVASWFDDHPDAKSSNSDTSIFFTKVNLEDPSKTIPKAFQFFQLNNVPRLFIFKPNSPSILDHSVISISTDTGSERMKQIIQAIKQFSQVNDFSLHLPMDWTPIITSTIITFITVLLFKKQSKLMFSIISSRIIWATLSTFFIICMISAYMFNQIRNTQLAGVGPKGEVMYFLPNEFQHQFAIETQVMVLIYGTLAALVVVLVKGIQFLRSHLYPETKKAYFIDAILASFCALFIYVFFAALTTVFTIKSPAYPFPLLRLSAPFK
notes: OST3, oxidoreductase subunit of S. cerevisiae OST; Stood in the assay within the whole OST complex; source: S. cerevisiae (YEp352-OST3), as a subunit of the purified OST complex (Rho-1D4 antibody Sepharose through OST4-1D4, SEC)
As to B1, the binding result in test [1] is “binds”.

B2: TAMRA-YANATS-NH2 (peptide)
peptide: {5‑TAMRA}-YANATS-NH2
SMILES: C[C@H](NC(=O)[C@H](Cc1ccc(O)cc1)NC(=O)c1ccc(-c2c3ccc(N(C)C)cc3[o+]c3cc(N(C)C)ccc23)c(C(=O)[O-])c1)C(=O)N[C@@H](CC(N)=O)C(=O)N[C@@H](C)C(=O)N[C@H](C(=O)N[C@@H](CO)C(N)=O)[C@@H](C)O
notes: acceptor substrate of OST; also called 5-TAMRA-YANATS; reactive peptide; source: bought: Genscript
For B2, the binding result in test [2] was “binds”.

B3: OST2, subunit of S. cerevisiae OST (natural protein)
chain: MAKAPKANTPKVTSTSSAVLTDFQETFKTSKRAYFAQIEKYPKLKLIDTFCFFLVLLGVIQCTFIILIRDNFPFNAFLAGFIICVGQFVLLMSLRLQLCNSFPGISKNRAFAEFIVASLILHFVCLHFIN
notes: OST2, non-catalytic subunit of S. cerevisiae OST; Stood in the assay within the whole OST complex; source: S. cerevisiae, as a subunit of the purified OST complex (Rho-1D4 antibody Sepharose through OST4-1D4, SEC)
Regarding B3, the binding result in test [3] is recorded as “binds”.
